# Assay results: patent US11103555B2, “Compositions and methods for reducing tumor cell growth at a site of solid tumor excision” (The Pacific Heart, Lung, & Blood Institute, priority 2016, dated 2021)
# Tested on: melanoma
# Experiment: Treatment of patients with melanoma
# Type: in vivo
# Protocol: 100 patients are diagnosed with melanoma and subject to IL-12 recombinant protein injection at the tumor site. Patients receive either vehicle injections, 250 ng/kg/day of IL-12 or 500 ng/kg/day of IL-12 per treatment every three days for a week. […] By 5 years post-surgery, 40% of the patients who undergo IL-12 therapy have a relapse of […], and have 60% survival rate.
# 100 patients are diagnosed with melanoma and are administered genetically modified stem cells expressing IL-12 by intracavitary infusion. Tumor size is monitored by PET scan, and at the end of six months, the tumor size is reduced.
molecule,measurement,setting,value
"IL-12: IL-12 recombinant protein injected at the tumor site (protein, listed as Homo sapiens) chain 1: MCHQQLVISWFSLVFLASPLVAIWELKKDVYVVELDWYPDAPGEMVVLTCDTPEEDGITWTLDQSSEVLGSGKTLTIQVKEFGDAGQYTCHKGGEVLSHSLLLLHKKEDGIWSTDILKDQKEPKNKTFLRCEAKNYSGRFTCWWLTTISTDLTFSVKSSRGSSDPQGVTCGAATLSAERVRGDNKEYEYSVECQEDSACPAAEESLPIEVMVDAVHKLKYENYTSSFFIRDIIKPDPPKNLQLKPLKNSRQVEVSWEYPDTWSTPHSYFSLTFCVQVQGKSKREKKDRVFTDKTSATVICRKNASISVRAQDRYYSSSWSEWASVPCS chain 2: MWPPGSASQPPPSPAAATGLHPAARPVSLQCRLSMCPARSLLLVATLVLLDHLSLARNLPVATPDPGMFPCLHHSQNLLRAVSNMLQKARQTLEFYPCTSEEIDHEDITKDKTSTVEACLPLELTKNESCLNSRETSFITNGSCLASRKTSFMMALCLSSIYEDLKMYQVEFKTMNAKLLMDPKRQIFLDQNMLAVIDELMQALNFNSETVPQKSSLEEPDFYKTKIKLCILLHAFRIRAVTIDRVMSYLNAS","tumor size by PET scan, higher dose",500 ng/kg/day versus 250 ng/kg/day or vehicle,greater reduction in tumor size than the lower dose or vehicle injected patients
same,tumor size by PET scan,"IL-12 recombinant protein injection at the tumor site, 250 or 500 ng/kg/day every three days for a week, versus vehicle",reduced tumor size
same,patients with relapse,by 5 years,40%
same,survival rate,by 5 years,60%
same,T cell activation and immune cell infiltration in biopsies of injected lesions,versus vehicle injections,more T cell activation and immune cell infiltration
